Measurements taken from US20150344570A1 (published 2015).

B1: GpH7-A5/GpH7-B3 variant G236_03V/GpL16-k0 (He Ab) (antibody, human IgG1, kappa)
heavy 1: not shown
heavy 2: not shown
light: DIVMTQSPLSLPVTPGEPASISCQASESLVHSNRNTYLHWYLQKPGQSPQLLIYKVSNRFSGVPDRFSGSGSGTDFTLKISRVEAEDVGVYYCSQNTHVPPTFGQGTKVEIERTVAAPSVFIFPPSDEQLKSGTASVVCLLNNFYPREAKVQWKVDNALQSGNSQESVTEQDSKDSTYSLSSTLTLSKADYEKHKVYACEVTHQGLSSPVTKSFNRGEC
notes: He Ab: mutation in one H chain only
B2: GpH7-A5/GpH7-B3 variant L234_14T/GpL16-k0 (He Ab) (antibody, human IgG1, kappa)
heavy 1: not shown
heavy 2: not shown
light: B1 light
notes: as for B1
B3: GpH7-A5/GpH7-B3 variant S239_11K/GpL16-k0 (antibody, human IgG1, kappa)
heavy 1: not shown
heavy 2: not shown
light: B1 light
notes: Heterodimerized anti-glypican-3 IgG1; mutation in one H chain only; also called He Ab
B4: GpH7-A5/GpH7-B3 variant L234_05P/GpL16-k0 (He Ab) (antibody, human IgG1, kappa)
heavy 1: not shown
heavy 2: not shown
light: B1 light
notes: as for B1
B5: GpH7-A5/GpH7-B3 variant L234_01G/GpL16-k0 (He Ab) (antibody, human IgG1, kappa)
heavy 1: not shown
heavy 2: not shown
light: B1 light
notes: as for B1
B6: GpH7-A5/GpH7-B3 variant L235_18N/GpL16-k0 (He Ab) (antibody, human IgG1, kappa)
heavy 1: not shown
heavy 2: not shown
light: B1 light
notes: as for B1
B7: GpH7-A5/GpH7-B3 variant G236_05P/GpL16-k0 (He Ab) (antibody, human IgG1, kappa)
heavy 1: not shown
heavy 2: not shown
light: B1 light
notes: as for B1
B8: GpH7-A5/GpH7-B3 variant S239_16H/GpL16-k0 (antibody, human IgG1, kappa)
heavy 1: not shown
heavy 2: not shown
light: B1 light
notes: as for B3
B9: GpH7-A5/GpH7-B3 variant L235_12R/GpL16-k0 (antibody, human IgG1, kappa)
heavy 1: not shown
heavy 2: not shown
light: B1 light
notes: heterodimerized IgG1, mutation in one H chain only; also called He Ab
B10: GpH7-A5/GpH7-B3 variant L235_02A/GpL16-k0 (He Ab) (antibody, human IgG1, kappa)
heavy 1: not shown
heavy 2: not shown
light: B1 light
notes: as for B1
B11: GpH7-A5/GpH7-B3 variant G236_04F/GpL16-k0 (He Ab) (antibody, human IgG1, kappa)
heavy 1: not shown
heavy 2: not shown
light: B1 light
notes: as for B1
B12: GpH7-A5/GpH7-B3 variant L234_16H/GpL16-k0 (He Ab) (antibody, human IgG1, kappa)
heavy 1: not shown
heavy 2: not shown
light: B1 light
notes: as for B1
B13: GpH7-A5/GpH7-B3 variant L234_13S/GpL16-k0 (He Ab) (antibody, human IgG1, kappa)
heavy 1: not shown
heavy 2: not shown
light: B1 light
notes: as for B1
B14: GpH7-A5/GpH7-B3 variant L234_19Q/GpL16-k0 (He Ab) (antibody, human IgG1, kappa)
heavy 1: not shown
heavy 2: not shown
light: B1 light
notes: as for B1
B15: GpH7-A5/GpH7-B3 variant L235_03V/GpL16-k0 (He Ab) (antibody, human IgG1, kappa)
heavy 1: not shown
heavy 2: not shown
light: B1 light
notes: as for B1

How the values were obtained:
[1] = molecular target: T1, FcγRIa extracellular domain with C-terminal His tag (human, UniProt P12314 16-292); experiment: SPR (Biacore), relative binding, HeCon Ab = 100
T1 construct: extracellular domain; Expressed in FreeStyle293 cells; analyte in the SPR assay; also called FcgRI; 1a
T1 sequence (P12314 16-292): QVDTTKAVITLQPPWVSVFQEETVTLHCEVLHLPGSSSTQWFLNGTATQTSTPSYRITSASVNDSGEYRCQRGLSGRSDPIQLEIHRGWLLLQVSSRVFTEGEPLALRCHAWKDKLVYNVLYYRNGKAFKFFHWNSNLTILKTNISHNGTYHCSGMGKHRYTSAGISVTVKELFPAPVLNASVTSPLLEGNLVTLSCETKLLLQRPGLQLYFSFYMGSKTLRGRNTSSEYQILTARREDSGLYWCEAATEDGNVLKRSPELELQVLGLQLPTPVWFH

[2] = molecular target: T2, FcγRIIb extracellular domain with C-terminal His tag (human, UniProt P31994 43-217); experiment: SPR (Biacore), relative binding, HeCon Ab = 100
T2 construct: extracellular domain; Expressed in FreeStyle293 cells; analyte in the SPR assay; also called FcgRIIb; 2b
T2 sequence (looked up): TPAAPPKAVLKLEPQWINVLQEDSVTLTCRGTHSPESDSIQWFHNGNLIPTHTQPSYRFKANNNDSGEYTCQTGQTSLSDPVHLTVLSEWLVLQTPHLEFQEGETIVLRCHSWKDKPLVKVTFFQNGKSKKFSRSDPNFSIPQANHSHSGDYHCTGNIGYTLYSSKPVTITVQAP

[3] = molecular target: T1, FcγRIa extracellular domain with …; experiment: SPR (Biacore); He/Con_1a divided by He/Con_2b (FcγRIa against FcγRIIb)
[4] = molecular target: T3, FcγRIIa R (human, UniProt P12318 34-217); experiment: SPR (Biacore T100); He/Con_2aR divided by He/Con_2b (FcγRIIa R over FcγRIIb)
T3 construct: extracellular domain; also called FcgRIIa R; FcγRIIa type R; not shown: His tag at the C terminus
T3 sequence (looked up): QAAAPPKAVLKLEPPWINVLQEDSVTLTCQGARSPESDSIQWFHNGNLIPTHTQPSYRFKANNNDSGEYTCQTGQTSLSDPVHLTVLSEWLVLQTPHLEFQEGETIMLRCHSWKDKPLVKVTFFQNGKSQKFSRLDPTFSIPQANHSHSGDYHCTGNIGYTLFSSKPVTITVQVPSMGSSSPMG

[5] = molecular target: T3, FcγRIIa R; experiment: SPR (Biacore T100), antibody captured on antigen peptide chip, FcγR as analyte; binding relative to GpH7-A5/GpH7-B3/GpL16-k0 = 100
[6] = molecular target: T4, FcγRIIb (human, UniProt P31994 43-217); experiment: as above
T4 construct: extracellular domain; also called FcgRIIb; 2b; not shown: His tag at the C terminus
T4 sequence (looked up): T2 sequence (looked up)

[7] = molecular target: T5, FcγRIIa R (FcγRIIa allotype with Arg at position 131), extracellular domain with C-terminal His tag (human, UniProt P12318 34-217); experiment: SPR (Biacore), antibody captured, FcγR analyte; vs GpH7-A5/GpH7-B3/GpL16-k0 = 100
T5 construct: extracellular domain; made in FreeStyle293 cells; analyte in the Biacore assay; also called FcγRIIa type R; 2aR
T5 sequence (looked up): T3 sequence (looked up)

[8] = molecular target: T5, FcγRIIa R (FcγRIIa allotype with Arg at …); experiment: SPR (Biacore); He/Con_2aR divided by He/Con_2b, binding to FcγRIIa R against binding to FcγRIIb
Protocol: The heterodimerized antibodies He Abs in which one of the H chains was introduced with an alteration were assayed for their binding activities to each activating FcγR and inhibitory FcγR according to the method described in Example 4. […] The activating FcγRs in FIGS. 26, 27, 28, and 29 are FcγRIa, FcγRIIa (R), FcγRIIa (H), and FcγRIIIa, respectively.
Analysis of interaction between objective antibody and the FcγR was carried out using Biacore T100 (GE Healthcare). HBS-EP+ (GE Healthcare) was used as the running buffer, and the measurement temperature was set to 25° C. Chips produced by immobilizing the antigen peptide by the amine coupling method to a Series S Sencor Chip CM5 (GE Healthcare), or alternatively, chips produced by allowing preliminarily biotinylated antigen peptides to interact with and immobilize onto a Series S Sensor Chip SA (certified) (GE Healthcare) were used. Antibodies of interest were captured onto an antigen peptide-immobilized chip, and allowed to interact to each FcγR diluted with running buffer. To regenerate and repeatedly use the chip, the antibodies captured on the chip were washed off by reacting 10 mM glycine-HCl, pH 1.5.

Binder	He/Con_1a [1]	He/Con_2b [2]	He_1a/2b (Ia/IIb) [3]	He_2aR/2b (IIaR/IIb) [4]	He/Con_2aR (IIaR binding) [5]	He/Con_2b (IIb binding) [6]	He/Con_2aR [7]	He_2aR/2b (IIaR/IIb) [8]
B1	89.9 % of HeCon Ab (=100)	35.3 % of HeCon Ab (=100)	2.55 ratio	–	–	–	–	–
B2	98.6 % of HeCon Ab (=100)	62.5 % of HeCon Ab (=100)	1.58 ratio	–	–	–	–	–
B3	–	–	–	1.96 ratio	48.5 % of control	24.7 % of control	–	–
B4	99.9 % of HeCon Ab (=100)	72.9 % of HeCon Ab (=100)	1.37 ratio	–	–	–	–	–
B5	96.1 % of HeCon Ab (=100)	50.7 % of HeCon Ab (=100)	1.9 ratio	–	–	–	–	–
B6	92.2 % of HeCon Ab (=100)	54.9 % of HeCon Ab (=100)	1.68 ratio	–	–	–	–	–
B7	77 % of HeCon Ab (=100)	19 % of HeCon Ab (=100)	4.05 ratio	–	–	–	–	–
B8	–	–	–	1.4 ratio	69.2 % of control	49.4 % of control	–	–
B9	–	–	–	–	–	–	16.2 relative (HeCon Ab = 100)	1.69 ratio
B10	92.2 % of HeCon Ab (=100)	63 % of HeCon Ab (=100)	1.46 ratio	–	–	–	–	–
B11	96.4 % of HeCon Ab (=100)	39.3 % of HeCon Ab (=100)	2.45 ratio	–	–	–	–	–
B12	94 % of HeCon Ab (=100)	59.4 % of HeCon Ab (=100)	1.58 ratio	–	–	–	–	–
B13	96.9 % of HeCon Ab (=100)	59.3 % of HeCon Ab (=100)	1.63 ratio	–	–	–	–	–
B14	95.7 % of HeCon Ab (=100)	60.3 % of HeCon Ab (=100)	1.59 ratio	–	–	–	–	–
B15	94.7 % of HeCon Ab (=100)	66.4 % of HeCon Ab (=100)	1.43 ratio	–	–	–	–	–
